Experimental data published in article PMC7895813 (Journal of Molecular Biology, 2021).

Key:
[1] = biological target: the molecule itself; assay: SEC; GST-MDM2 variants (3 mg/mL) incubated with 1:10 TEV for 16-20 h at 4 °C; soluble fraction of the cleaved products on Superdex 75 Increase 10/300; comparison with molecular weight markers and SDS-PAGE
[2] = biological target: T1, UbcH5B–Ub, isopeptide-linked E2–Ub conjugate (UbcH5B S22R C85K) (human | , UniProt P62837 1-147; P0CG48 1-76, S22R | C85K, lysine 85 (C85K) isopeptide-linked to the C-terminus of Ub | C-terminus isopeptide-linked to lysine 85 of UbcH5B); assay: SPR; GST-tagged MDM2 variants captured on a CM-5 chip with coupled anti-GST antibody; serial dilution of UbcH5B–Ub as analyte; Biacore T200, 25 °C; 25 mM Tris-HCl pH 7.6, 150 mM NaCl, 1 mM DTT, 0.005% Tween-20; two technical replicates; details: both partners purified
T1 construct: ubiquitin (Ub), the cut product of the ubiquitin precursor; Ub was cloned with an N-terminal 6xHis-tag, a TEV cleavage site and a GGS linker; also called E2(UbcH5B)–Ub; source: E. coli BL21(DE3) GOLD, purified; conjugate generated as described previously

[3] = biological target: the molecule itself; assay: SEC; cleaved MDM2 variants after removal of the GST-tag on HiLoad 16/600 Superdex 75; oligomeric state by comparison with molecular weight markers

B1: MDM2^h A434S (human MDM2 419-C A434S), GST-tag removed (domain or fragment, UniProt Q00987 419-491, looked up)
chain: TQDKEESVESSLPLNSIEPCVICQGRPKNGCIVHGKTGHLMACFTCAKKLKKRNKPCPVCRQPIQMIVLTYFP
notes: MDM2, human, residues 419 to the C-terminus, with A434S; source: E. coli BL21(DE3) GOLD, GST-MDM2 treated with TEV, soluble cleaved products on analytical SEC; not shown: GST, N-terminal, cleaved
[1]
  binding result: binds

B2: GST-tagged human MDM2 419-C G443T (MDM2^hGT) (domain or fragment, UniProt Q00987 419-491, looked up)
chain: TQDKEESVESSLPLNAIEPCVICQTRPKNGCIVHGKTGHLMACFTCAKKLKKRNKPCPVCRQPIQMIVLTYFP
notes: MDM2, human, residues 419 to the C-terminus, with G443T; pGEX-4T1, N-terminal GST-tag followed by a TEV cleavage site; GST kept for SPR and ubiquitination assays; also called GST-MDM2^hGT; MDM2^h G443T; source: E. coli BL21(DE3) GOLD, purified (glutathione Sepharose, gel filtration); not shown: GST, N-terminal, kept
[2]
  Kd: 16.3 ± 1.9 µM

B3: GST-tagged human MDM2 419-C (MDM2^h) (domain or fragment, UniProt Q00987 419-491, looked up)
chain: TQDKEESVESSLPLNAIEPCVICQGRPKNGCIVHGKTGHLMACFTCAKKLKKRNKPCPVCRQPIQMIVLTYFP
notes: MDM2, human, residues 419 to the C-terminus (RING domain with the preceding region); pGEX-4T1, N-terminal GST-tag followed by a TEV cleavage site; GST kept for SPR and ubiquitination assays; also called GST-MDM2^h; wild-type MDM2^h; source: E. coli BL21(DE3) GOLD, purified (glutathione Sepharose, gel filtration); not shown: GST, N-terminal, kept
[2]
  Kd: 13.5 ± 0.6 µM

B4: human MDM2 419-C G443T (MDM2^hGT), GST-tag removed (domain or fragment, UniProt Q00987 419-491, looked up)
chain: TQDKEESVESSLPLNAIEPCVICQTRPKNGCIVHGKTGHLMACFTCAKKLKKRNKPCPVCRQPIQMIVLTYFP
notes: MDM2, human, residues 419 to the C-terminus, with G443T; also called MDM2^h G443T; MDM2-G443T; source: E. coli BL21(DE3) GOLD, GST-tag released with TEV, Superdex 75 gel filtration; not shown: GST, N-terminal, cleaved
[1]
  stoichiometry N: 2

B5: MDM2^h I435V (human MDM2 419-C I435V), GST-tag removed (domain or fragment, UniProt Q00987 419-491, looked up)
chain: TQDKEESVESSLPLNAVEPCVICQGRPKNGCIVHGKTGHLMACFTCAKKLKKRNKPCPVCRQPIQMIVLTYFP
notes: MDM2, human, residues 419 to the C-terminus, with I435V; source: E. coli BL21(DE3) GOLD, GST-MDM2 treated with TEV, soluble cleaved products on analytical SEC; not shown: GST, N-terminal, cleaved
[1]
  binding result: binds

B6: MDM2^h P491S (human MDM2 419-C P491S), GST-tag removed (domain or fragment, UniProt Q00987 419-491, looked up)
chain: TQDKEESVESSLPLNAIEPCVICQGRPKNGCIVHGKTGHLMACFTCAKKLKKRNKPCPVCRQPIQMIVLTYFS
notes: MDM2, human, residues 419 to the C-terminus, with P491S; source: E. coli BL21(DE3) GOLD, GST-MDM2 treated with TEV, soluble cleaved products on analytical SEC; not shown: GST, N-terminal, cleaved
[1]
  binding result: binds

B7: Danio rerio MDM2 407-C (MDM2^z), GST-tag removed (domain or fragment, Danio rerio (zebrafish), UniProt O42354 377-445, looked up)
chain: FNSLEACLPATCLEPCVICQSRPKNGCIVHGRTGHLMACYTCAKKLKNRNKLCPVCREPIQSVVLTYMS
notes: MDM2, Danio rerio (zebrafish), residues 407 to the C-terminus; 407-417 correspond to 423-433 of human MDM2, which implies a numbered chain of about 475 residues; also called zebrafish MDM2 407-C; source: E. coli BL21(DE3) GOLD, GST-tag released with TEV, Superdex 75 gel filtration; not shown: GST, N-terminal, cleaved
[3]
  stoichiometry N: 2
